Test results from patent publication US20090123474A1, “COMBINATION OF ANGIOPOIETIN-2 ANTAGONIST AND OF VEGF-A, KDR AND/OR FLTL ANTAGONIST FOR TREATING CANCER” (ASTRAZENECA AB, priority 2005, published 2009).

Tested on: A431 human tumour xenografts
Assay: A431 xenograft efficacy study (Study A)
Assay type: in vivo
Details: 3.19.3 10 mg/kg 2×wk i.p., VTKI 3 mg/kg/day p.o.
Description: The anti-tumor activity of monoclonal antibody 3.19.3 in combination with the VTKI 4-(4-fluoro-2-methylindol-5-yloxy)-6-methoxy-7-(3-piperidinopropoxy)quinazoline was evaluated in a xenograft model of human skin epidermoid carcinoma (Study A) and in a model of colorectal cancer (Study B) by using the A431 and Colo205 cell lines respectively.
A431 and Colo205 cells were cultured in flasks as routine until the cells reached sub-confluence. Immunodeficient 6-8 week old female mice (Ncr/nu/nu) were used. The cells were harvested and suspended in Matrigel. A cell suspension containing 1 to 5×10^6 cells was injected subcutaneously into the flank of the mice. The mice were randomized into different groups, each containing 10-15 mice. When the tumour volume reached 200 mm^3, the mice were randomized in each groups and the treatments were initiated. mAb 3.19.3 10 mg/kg in saline was injected intraperitoneally, twice per week for 2 weeks. 4-(4-fluoro-2-methylindol-5-yloxy)-6-methoxy-7-(3-piperidinopropoxy)quinazoline was treated peroral daily at doses ranging from 1.5 to 6 mg/kg in water containing 1% Tween80. The dimensions of each tumor were measured twice per week. The volume of the tumor was calculated as: Volume=Length×(Width)^2×0.5 (cm^3).

B1: mAb 3.19.3: fully human anti-Angiopoietin-2 monoclonal antibody, variable regions SEQ ID NO: 5-8; also binds Angiopoietin-1 (antibody, V domains shown)
VH: QVQLVESGGGVVQPGRSLRLSCAASGFTFTNYGMHWGRQAPGKGLEWVAVISHDGNNKYYVDSVKGRFTISRDNSKNTLYLQMNSLRAEDTAVYYCAREGIDFWSGLNWFDPWGQGTLVTVSSA
VL: EIVLTQSPGTLSLSPGERATLSCRASQSITGSYLAWYQQKPGQAPRLLICGASSWATGIPDRFSGSGSGTDFTLTISRLEPEDFAVYYCQQYSSSPITFGQGTRLEIKR
% tumor growth inhibition: 46%
